Results: the nanobody polyreactivity screen of Harvey et al. (2022)

Assay: yeast display, Sf9 membrane polyspecificity reagent, FACS + sequencing; frameworks hold sequencing errors
Method in brief: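 Sorting gates, low and high (top ~1%), were placed on anti-HA fluorescence to track expression and on streptavidin fluorescence to track reagent binding. A clone's polyreactivity label is taken from the gate it came out of. The reagent was 10% biotinylated, detergent-solubilized Sf9 membrane, applied for 1 hour at 4 °C to galactose-induced yeast display cells.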

Sequence	polyreactivity (PSR sort gate)
QDQLVESVGGLVQAGGSLRLSCAASGLIFSRNVMGWYRQGPGTERELVAAITRSGGSTYYADSVKGRFTISRDNAKNTVYLQMNSLKPVDTAVYYCAASRFNYVYLLKGDYWGQGTQVTVSS	high polyreactivity
QVQLVESGGGLVQAGGRRRLICAASGSTFVRNAMGWYRQAPGKERELVATISSGGGTKYADSVKGRFTISRDNAKNTVYLQMNSLKPEDTAVYYCAARYRSYAVRLRGYDYWGQGTQVTVSS	high polyreactivity
QVQLVESGGGLVQAGGSLRLSCAASGNTFSPNAMGWYRQAPGKERELVAALDSRDGITYYADSVKGRFTISRDNAKNTVYLQMNSLKPEDPAVYYCNAEGSYPDVSPVLGYDYWGQGTQVTVSS	low polyreactivity
QVQLVESGGGLVQAGGSLRLSCAASGRTFPAYAMGWYRQAPGKERELVAAISYSGGRTRYADSVKGRFTISRDNAKNTVYLQMNSLKPEDTAVYDCNRVIPTQSLRDYYWGQGTQVTVSS	high polyreactivity
QVQLVESGGGLVQAGGSLSLSCAASGLIFYYYAMGWYRQAPGKERELVAAITRGGRTYYADSVKGRFTISRDNAKNTVYLQMNSLKPEDTAVYYCAAVTRVYGKTMGYWGQGTQVTVSS	high polyreactivity
QVQLVESGGGLVQAGGSLRLSCAASGRIFYENAMGWYRQAPGKDRELVAAISGSGGSTYYADSVKGRFTISRDNAKNTVYLQMNSLKPEDTAVYYCNAYRRVPGYDYWGQGTQVTVSS	high polyreactivity
QVQLVESGGGLGQAGGSLRLSCAASGRIFYSYAMGWSRQAPGKESELVAAITESGGSTNYADSVKGRFTISRDNAKNTVYLQMNSLNPEDTAVFYCNARYKLTFNLYNYWGQGTQVTVSS	low polyreactivity
QVQLVESGGGLVQAGGSLRLSCAASGRIFVYNAMGWYRQAPGKERELVAAISWSGGSTYYADSVKGRFTISRDNAKNTVYLQMNSLKPEDTAVYYCAAYYSARRGHYRNSYGYDYWGQGTQVTVSS	high polyreactivity
QVQLVESGGGLVQAGGSLRLSCSASGSIIVSYTMGWYRQAPGKERELVAAISGGGASTYYADSVKGRFTISRDNAKNTVYLQMNSLKPEDTAVYYCNADGYYDMDYCGQGTQVTVSS	low polyreactivity
QVQLVESGGGLVQAGGSLRLSCAASGFTFRRYVMGWYRQAPGKERELVAAISQSGGSTYYADSVKGRFTISRDNAMNTVYLQMNSLKPEDTAVYYCAAAKVPYGWAQSDYWGQGTQVTVSS	high polyreactivity
QDQLVDSGGGLVQAGGSLRLSCAASGRIIFYYTMGSYSQAPGKESELVAAINSTGSTNYADSVKGRFTISRDNAKNTVYLQMNSLKPEDTAVYYCNAGTRYIFLYPPFLGAAFDYWGQGTQVTVSS	low polyreactivity
QVQRVESGGGLVQAGGSLRLSCAASGSIFSYYARGLYRQAPGNESELVAVINSGSTNYAASVKGRFTISRDNAKNTVYIHMNSLKPEDTAVYYCAADSLLYLLEQYTTAPYDYWAQGTQVTVSS	low polyreactivity
QVQLVESGGGLVQAGGSLRLSCAASGSTFDKYAMGWYRQAPRKERELVAAITWGGGSTYYADSVKGRITISRDNAKNTVYLPMNSLKPEDTAVYYCAAEQRSSVLYDSWGQGTQVTVSS	low polyreactivity
QVQLVESGGGLVQAGGSLRLSCAASGSIFLHNAMGWYRQAPGKERELVAGITSSGTSTYYADSVKGRFTISRDNEKNTVYLQMNSLKPEDTAVYYCAAYRYGSRGGYCGQGTQVTVSS	high polyreactivity
QVQLVESGGGLVQAGGSLRLSCAASGRTFRFNAMGWYRPAPGKERELVAAIRWSGSSTYYADSVKGRFTISRDNAKNTVYLQMNSLKPEDTAVYYSAKRVKTTWFGYWGQGTQVTVSS	high polyreactivity
QVQLVEAGGGLVQAGGILRLSSAASGSIFPLNAMGWYRQAPGKERELVAAISESGGRTYYADSVNGRFTISRDNAKNTVYLQMNSLNPEDTAVYYCATVRLARKSAPYDYWGQGTQVTVSS	high polyreactivity
QVQLVESGGGLVQAGGSLRLSCAASGRIFRYYAMGWYRQAPGKERELVAAISSGGSTNYADSVKGRFTISRDNAKNTVYIQMNSLKPEDTPVYYCAAEWYSYGARSSYGGSRNDYWGQGTQVTVSS	low polyreactivity
QVQLVESGGGLVQAGGSLRLSCAASGIIFYYYAMGWYRQAPGKERELVAGISYSGGSTYADSVKGRFTISRDNAKNTVYLQMNSLKPEDTAVYYCASDYDYGGHWYDYWGQGTQVTVSS	low polyreactivity
QVQLVESAGGLDQAGGSLRLSCAASGFTFVAYSMGLYRQAPGKERELVADISRGGSTFYADSVKGRFTISRDNAKISVYLQKNSLKPEDSAVYYCASTYIHSYGKFYYWGQGTQVTVSS	low polyreactivity
QVQLLESRGGLVQAGGSLRLSCAASGSNFDVYDMGWYRQAPGKERELVACISWDGDRTYYADSVKGRFTISRDNAKNTVYLQMKSLKPEDTAVYYCAVDSASDTIYDYWGQGTQVTVSS	low polyreactivity
QVQLGESGGGLVQAGGSLRLSCAASGRIFQIYGMGWYRQAPGKERELVASISSGDSTNFADSVKGRFTISRDNAKNTVYLQMNSLIPEDTAVYYCAARSRRAYNYWGQGTQVTVSS	high polyreactivity
QVQLVESGGGLVQAGGSLRLSCAASGRIFLGNAMGWYRQAPGKERDLVAAITNGGGSTYYADSVKGRFTISRDNAKNTVYLQMNSLKPEDTAVYYCARGYKKSVQRFEYWGQGTQVTVSS	high polyreactivity

Sequence	polyreactivity (PSR sort gate)
QVQLVESGGGLVQAGGSLRLSCAASGRIFNSYAMGWYRQAPGKERELVAAITRGGSTNYADSVKGRFTISRDNAKNTVYLHMNSLKPEDTAVYYCAAVTLFHYRYDYWGQGTQVTVSS	low polyreactivity
QVQLVESGGGLVQAGGSLRLSCAASGIIFKQYAMGWYRQAPGKERELVAAITGSGGRTTYADSVKGRFTISRDNAMNTVYLQMNSLKPEDTAVYFCAAVGLSGWRDGYWGQGTQVTVSS	high polyreactivity
QVQLVESGGGLVQAGGSLRLSCAASGRILYLYTMGWYRQAPGKERELVAAISRGGSTYYADSVKGRFTISRDNAKNTVYLQMNSLKPEDTAVYSCAADARGYQFNYWGQGTQVTVSS	low polyreactivity
QVQLVESGGGLVQAGGSLRLSCAASGRIFTANAMGCYIQAPGKERELVAAISWRGGSTYYADSVKGRFTISRDNAKNTVYLQMNSLKPEDTAVYYCNKVGATWRQWFGYWGQGTQVTVSS	high polyreactivity
QVQLVESGGGLVQAGGSLRLSCAASGGTLRGNAMGWYRQAPGKERELVAAISGSAGRTYYADSVKGRFTISRDNAKNTVYLQMTSLKPVDTAVYYCAASRRVVKMDYWGQGTQVTVSS	high polyreactivity
QDQLVESVGGLVQAGGSLRLSSAASGFIFYLYAIGWDRQAPGKERDLVAAITRRGGSTYYEDSVKGRFTISRDNAKNTVYLQMNSLKPEDTAVYDCAADHYGFFSAGDFDYWGQGTQVNVSS	high polyreactivity
QVQLVESGGGLVQAGGSLLLSCAASGGTFHYNAMGWYIQAPGKERELVAAITESGGRTYYADSVKGRFTISRDNAKNTVYLQMNSLKPEDTAVYYCNADQDSDAADRSAYWGQGSQVTVSS	low polyreactivity
QVQLVESGGGLVQAGGSLRLSCAASGRTIEWYAMGWYRQAPGKEREFVARISGIGGSTYYADSVKGRFTISRDKAENTVYLQMNSLKPEDTAVYYCAAVSYFGYYYWGQGTQVTVSS	high polyreactivity
QVQLVESGGGLDQAGGSLRLSSAASGLTFVTYAMGWYRQAPGTERELVAAISYSGGSTYYADSVKGRFTISRDNAKNTVYLQMNSLKPEDTAVYYCNARSPQPDGRPPYNYWGQGTQVTVSS	high polyreactivity
QVQLVESGGGLVQAGGSLRLSCAASGFTFGRYAMGWYRQAPGKEREFVAGITWSGGSTSYADSVKGRFTISRDNAKNTVYLQMNSLKREDTAVYYSATRARYTRVHGRRYAYDYWGQGTQVTVSS	high polyreactivity
QVQLVESGIGLVQAGGSLSLSCAASGFNLDTYGMGWYRQAPGKERELVAAISQSDVSTYYADSVKGRFTISRDNAKNTVYLQMNSLKPEDTAVYYCAADRGGLRWFWQVLYEYWGQGTQVTVSS	low polyreactivity
QVQLVESGVGIVQAGGSLRVSCAASGRIFYYYAMGWYRHAPGKERELVAVINSGDSTNYADSVKGRFTISRDNAKNSVYFQMNSLKPEDTAVYYCAKGVISDLDYWADYDYWGQGTQVSVSS	low polyreactivity
QVQLVESGGGLVQAGGSLRLSCAASGFTFWQYAMGSSRTAPGKERELVAAISSRGGSTYYADSVKGRFTISRDKAKNTVYLQMNSLKPEDTAVYYCNARANGFKDGYWGQGTQVTVSS	high polyreactivity
QVQLVESGGGLVQAGGSLRLSCAASGSIFIPNAMGWYRQAPGKERELVAAITSGGRTYYADSVKGRFTISRDNAKNTVYLQMNSLKPEDTAVYYCAARSGYRYVESDYWGQGTQVTVSS	high polyreactivity
QVQLVESGGGLVQAGGSLRLSCAASGSIFAVYAMVWYRQAPGKERELVAAISWSVGSTYYADSVKGRFTISRDNAKNTVYLQMNRLKPEDTAVYYCAADLAYYLDYVEYFTEIELEGYWGQGTQVTVSS	low polyreactivity
QVQLVESGGGLVQAGGSLRLICAASGSTFGANAMGWYRQAPGKEREFVAAISGSGTTTYYADSVKGRFTISRDNAKNTVYLQMNSLKPEDTPVYYCAKTRKAHWLEYWGQGTQVTVSS	low polyreactivity
QVQLVESGGGLVQAGGSLRLSCAASGLIFKKYTMGWYRQAPGKERELVASISKSGGSTYYADSVKGRFTISRDNAKNTVYLLMNSLKPDDTAVYYCAVGSTDRVSAQGSYFTYDYWGQGTQVNVSS	low polyreactivity
QVQLVESGGGLVQAGGSLRLSCAASGFIFGGYAMVWYRQAPGKERELVAAISSSGGSTYYADSVTGRFTISRDNAKNTVSLQMNSLKPEDTAVYYCAIVGWSRRYYYWGQGTQVTLSS	high polyreactivity
QVQLVESGGGLVQAGGSLRLSCAASGYTFYGYAMGWYRQAPGKERELVATISTGGTTTYADSVKGRFTISRDNAKNTVYLQMNSLKPEDTAVYYCAADANQVRDVHEFYPYLHDYWGQGTQVTVSS	low polyreactivity
QVQLVESGGGLVQAGGSLRLSCAASGSIFRYNAMGWYRQAPGKDRELVAAISSGGSTKYADSVKGRFTISRDNAKNTVYLQMNSMKPEDTAVYFCVARRARYDYWGQGTQVTVSS	high polyreactivity
QVQLVESGGGLVQAGGSLRLSCAASGSTFRDYAMGWSRQAPGKERELVAVISSSGSRTNYADSVKGRFTISRDNAKNTVYLQMNSLKREDTAVYYCAADTTRRAPGYYYWGQGTQVTVSS	high polyreactivity
